Reference: patent US20260258115A1 (MAPP BIOPHARMACEUTICAL, published 2026)

B1: ADI-41471 (antibody, V domains shown)
VH: QVQLVQSGADVKKPGSSVKISCKASGGSFITNSLSWVRRAPGQGLEWMGGIIPVSGTTTYAQKFLGRVTFTADESTSTAYMELNSLRSEDTAVYYCARFLGTPYPNVHYGMDVWGQGTTVTVSS
VL: DIRVTQSPSSLSASVGARVTITCRASQSISTYLNWYQEKPGKAPKLLIYAASSLQRGVPSRFSGSGSETTFTLTISSLQPEDFATYYCQQSYTAAYNFGQGTKVEIK
B2: ADI-41464 (antibody, V domains shown)
VH: QVQLVESGPGLVRPSGTLSLTCTVSGDSVNSYRWSWIRQSPGKGLEWIGYISYSGETNYNPSLKSRVSISVGTSRYQFFLKLSSVTAADTATYYCARDKTTIFGVSHYYFGVDVWGQGTTVTVSS
VL: DIVMTQTPLSLPVTPGEPASISCRSSQSLLKSDGYNSLDWYLQRPGQSPQLLIYLGSNRASGVPARFSGSGSGTDFTLKISRVEAEDVGVYYCMQALQTPFTFGPGTKVEIK
B3: ADI-41456 (antibody, V domains shown)
VH: EVQLLESGGGLFHPGGSLTLSCVASGFTLSTYYMHWVRQAPGKGLVWVARINSDGGYTTYADSVKGRFTVSRDNAKNTLYLQMNSLRVEDTAVYYCAREWVEFDSWGQGTLVTVSS
VL: NFMLTQPHSVSASPGKTVTISCTRSSGNIASNYVQWYQQRPGSSPTTVITEDNQRPSGVPDRFSGSIDSSSNSASLTISGLKTEDEADYYCQSYDSSTYVFGTGTKLTVL
notes: also called Ab 740; Antibody Number 740
B4: ADI-41463 (antibody, V domains shown)
VH: QVQLVQSGAEVKKPGASVKVSCTASGYSFTDYDISWVRQAPGQGLEWMGWISAYNGNTNYAQKFQDRVTMNTDTSTNTAYMELRGLRSDDTAVYYCARNCYYGSGTCYIEDYYFDYWGQGTLVTVSS
VL: DIQMTQSPSSLSASVGDRVTITCRASQDIKNDLGWYQQKPGKPPKRLIYGASRSQSGVPSRFSGSGSGTDFTLTIYSLQPEDFATYYCLQHSDYPFTFGQGTRLEIK
notes: also called Ab 747; Antibody Number 747
B5: ADI-41468 (antibody, V domains shown)
VH: QVQLQQWGAGPLKSSETLSLTCEVYGGPFSGYSWSWIRQPPGKGLEWIGEINHSGSTNYNPSLKSRVSFSVDTSKNQFSLKLSSVTAADTAVYYCARGAGFCTSTSCPPGLYYYYGMDVWGHGTTVTVSS
VL: SYELTQPLSVSVALGQTARITCGGNNIESKNVHWYQQMPGLAPVMVIYRDTNRPSGIPERFSGSNSGNTATLTISRAQAGDEADYYCQVWDSGTVIFGGGTKLTVL
notes: also called Ab 752; Antibody Number 752
B6: ADI-41469 (antibody, V domains shown)
VH: EVQLVESGGGVVQPGRSLRLSCAASGFTFSSYGMHWVRQAPGKGLEWVAVISYDGSFIKYADSMMGRFTISRDNSKNTLYLQMSSLRPEDTATYYCAKDALIPEYWGQGTLVTVSS
VL: QPVLTQPASVSGSPGQSITISCTGTSSDVGGYNYVSWYQKHPDKAPRVIIYEVSNRPSGVSNRFSGSKSGNTASLTISGLQAEDEADYYCCSYTSTSGVVFGGGTKLTVL
B7: ADI-41455 (antibody, V domains shown)
VH: QVQLQESGPGLVKPSQTLSLTCSVSEGSVISGDYYWSWIRQSPGKGLEWLGYIHYSGSTYYNPSLKSRVTISVDTSKKQFSLKLSSVTAADTAVYYCARDLGCIGGVCSAYGLEHNYYFGMDVWGQGTTVTVSS
VL: EIVLTQSPATLSLSPGERATLSCRASQSVSSYLAWYQQKPGQAPRLLIYTASNRATGIPARFSGSGSGTDFTLTISSLEPEDFAVYYCQQRSSWPPYTFGQGTKLEIK
B8: ADI-41475 (antibody, V domains shown)
VH: QVQLQESGPGLVKPSQTLSLTCAISGDSVSSNSAAWNWIRQSPSRGLEWLGRTYYRSKWWTDYAVSVKSRITINPDTSKNQFSLQLNSVTPEDTAVYYCARDPDSGNYFHYYGMDVWGQGTTVTVSS
VL: ETTLTQSPATLSLSPGERATLSCRASQSASSYLAWYQQKPGQAPRLLIYDASKRATGIPARFSGSGSGTDFSLTISSLEPEDFAVYYCQLRSKWPPYTFGQGTKVEIK
B9: ADI-41474 (antibody, V domains shown)
VH: QVQLVQSGAEVKRPGASVKVSCKISGYTFTSHYIHWLRQAPGQGLEWMGWINPNTGDTKYEQKFQGRVTMTRDTSLSTAYMELRRLRSDDTAVYYCARDSFYAANGYYFVWFDPWGQGALVTVSS
VL: DIQMTQSPTSLSASVGDRVTITCRASQSISSYLNWYQQKPGKAPRFLIYAASSLQSGVPSRFRGSGSGTDFTLTISSLQPEDFATYYCQQSYSSPYTFGQGTKVEIK
notes: also called Ab 757; Antibody Number 757
B10: ADI-41466 (antibody, V domains shown)
VH: QVQLVQSGAEVKKPGASVKVSCKASGYTFNFYYMHWVRQAPGQGLEWMGWINPKSGGTSYAQKFQGRVIMTGDTSISTTYMELSRLRSDDTAVYYCARADTGLELDVWGQGTTVTVSS
VL: QSALIQPASVSGSPGQSITISCTGTSSDVGGYNYVSWYQQHPGKAPKLILYDVSKRPSGVSNRFSGSKSGNTASLTISGLQAEDESDYFCSSYTRSNTVVFGGGTKVTVL
notes: also called Ab 750; Antibody Number 750
B11: ADI-41459 (antibody, V domains shown)
VH: QVQLVESGGGLVQPGGSLRLSCAASGFPFSAYGINWVRQAPGKGLEWVSYISSTSTTIKYADSVKGRFTISRDDAKNSLYLQLRSLRPEDTAVYYCAGGVWSGYYIDFWGQGTPVTVSS
VL: NFMLTQPQSVSESPGKTVTISCTRSSGSIGSNFVQWYQQRPGSSPTTVIYEDYQRPSGVPDRFSGSIDSSSNSASLTISGLKTEDEADYYCQSYDADMMVFGGGTKLTVL
notes: also called Ab 743; Antibody Number 743
B12: ADI-41472 (antibody, V domains shown)
VH: QVQLVQSGAEVKKPGSSVKVSCKASGGTFSSYAISWVRQAPGQGLEWMGRIIPVLDITNYAQKFQGRVTIMADKSTSTAYMELSSLRSEDTAIYYCARETSNFYFYYNAMDVWGQGTTVTVSS
VL: QPVLTQPPSASGSPGQSVTISCTGTSSDVGGDNYVSWYQQHPGKAPKLLIYEVSKRPSGVPDRFSGSRSGHTASLTVSGLQAEDEADYYCSSYAGRNNLGVFGGGTKLTVL
B13: ADI-41461 (antibody, V domains shown)
VH: QVQLVQSGAEVKKPGASVKVSCRASGYTFSSYDINWVRQATGQGLEWMGWMSPNSANTGYAQKFQGRVTMTRDTSINTAYMELSSLSSEDTAVYYCARFLGYCSGGSCYPGYGMDVWGQGTTVTVSS
VL: EIVLTQSPDSLAVSLGERATINCKSSQNVLYSSNNKDYLSWYQQKPGQPPKLLIYWASTRESGVPDRFSGSGSGTDFTLTINSLQAEDVAVYYCQQYYGTPYTFGQGTKLEIK
B14: ADI-41460 (antibody, V domains shown)
VH: QVTLKESGPALVKPTQTLTLTCTFSGFSLNTRGMCVSWVRQPPGKALEWLARIDWDDDKNYSTSLRTRLTISKDTSRNQVVLAMANMDPVDTATYYCARCARYDRSGYYVWYLDSWGQGTLVTVSS
VL: DIQMTQSPSSLSASVGDRVTITCRASQTIASYLNWYQQKPGKAPKLLIYVASTLQSGVPSRFSGSGSGTDFTLTISSLQPEDFATYYCQQSYSLTQWTFGQGTKVEIK
B15: ADI-41481 (antibody, V domains shown)
VH: QVQLVESGPGLVKPSETLSLACSVSGVSISTYYWTWIRQPPGKGLEWIGYISYSGSTNYNPSLKSRVTISADTSKNQFSLRLNSVTAADTAVYYCARTYYDFWSTYYGEFDHWGHGTLVTVSS
VL: SYELTQPLSVSVALGQTARITCGGNNIESKNVHWYQQKPGQAPVVVMYRDTNRPSGIPERFSGSNSGNTATLTISRAQAGDEADYYCQVWDSGTAGVVFGGGTKVTVL
notes: also called Ab 763; Antibody Number 763
B16: ADI-41473 (antibody, V domains shown)
VH: QVQLVQSGPGLVKPSQTLSLTCAISGDSVSSNSAAWSWIRQSPSRGLEWLGRTYYRSKWYYDHAVSVEGRITINADTSKNHFSLQLNSVTPEDTAVYYCARDPDSGNYFHYYGMDVWGQGTTVTVSS
VL: ETTLTQSPATLSLSPGERATLSCRTSQSVSSYLAWYQQKPGQAPRLLIYDASRRATGIPARFSGSGSGTHFTLTITSLEPEDFAVYYCQQRSKWPPYSFGQGTKVDIK
B17: ADI-41480 (antibody, V domains shown)
VH: EVQLLESGPGLVRPSGTLSLTCTVSGDSISGSNWWAWVRQPPGRRLEWIGEIYYRGATDYNSSLKSRVIISVDNSKNQFSLNLRSVTAADTAIYYCARVEKFATSGYYISYFDYWGQGTLVTVSS
VL: DIRVTQSPSSLSASVGDRVTITCRASQSISTYLNWYQHNPGKAPKLLIYAASSLQSGVPSRFSGSGSGTHFTLTISSLQPADFSTYYCQQSYSSPWTFGQGTKVEIK
B18: ADI-41550 (antibody, V domains shown)
VH: QVQLVQSGAEVKMPGASVRVSCKASGYTLGSHGITWVRQAPGQGLEWMGWISANNFNTHYAQKFQGRVTMTTDTSTSTAYMELRSLRSDDTAVYYCAREVMGHMVETISFDYWGQGTLVTVSS
VL: QPVLTQPPSVSVAPGQTARITCGGNNIGSESVHWYQQKPGQAPVLVVHDDSDRPSGIPERFSGSNSGNTATLTISRVEAGDEADYYCQVWDFTPDHPVFGGGTKVTVL

Key:
[1] = target: RSV prefusion F (preF), DS-Cav1 (Respiratory Syncytial Virus, UniProt P03420 26-513); test: BLI, IgG on anti-human IgG sensor, 100 nM antigen, 1:1 fit
[2] = target: RSV postfusion F (postF), F ΔFP (Respiratory Syncytial Virus, UniProt P03420 26-513); test: as above
[3] = target: RSV F on RSV-A2 virus (Respiratory Syncytial Virus (RSV-A2), UniProt P03420 26-574); test: cell-based or functional assay

Binder	Kd [1] [nM]	Kd [2] [nM]	Neutralization IC50 (RSV subtype A) [3] [µg/mL]
B1	3.75	0.761	> 25
B2	1.91	0.313	> 25
B3	1.48	0.267	> 25
B4	2.68	0.485	> 25
B5	0.716	0.344	> 25
B6	0.28	0.345	0.35
B7	1.53	0.638	> 25
B8	12.2	25.5	> 25
B9	17.8	34.8	0.26
B10	2.05	0.383	> 25
B11	1.89	0.343	> 25
B12	3.05	1.06	0.27
B13	2.3	0.548	> 25
B14	1.23	0.632	> 25
B15	2.09	0.443	0.68
B16	12.7	31.2	> 25
B17	4.34	0.703	> 25
B18		25.7	> 25
